Results: the DeepSol protein solubility set

Test: soluble on expression in E. coli; label from the status in PepcDB or PDB records
In the case of “MSLINARLIAFEDQWVPALNAPLKQAILADSQDAQLAAAMTYSVLAGGKRLRPLLTVATMQSLGVTFVPERHWRPVMALELLHTYSLIHDDLPAMDNDALRRGEPTNHVKFGAGMATLAGDGLLTLAFQWLTATDLPATMQAALVQALATAAGPSGMVAGQAKDIQSEHVNLPLSQLRVLHKEKTGALLHYAVQAGLILGQAPEAQWPAYLQFADAFGLAFQIYDDILDVVSSPAEMGKATQKDADEAKNTYPGKLGLIGANQALIDTIHSGQAALQGLPTSTQRDDLAAFFSYFDTERVNEGHHHHHH”, the “soluble on expression in E. coli” value is reported as “soluble”.
For “MSLELTISELKENFWGEYEYLDGGYMAARLAVLEHLEQIKRQSGIIIIREITEEYFAPVGNWHIRETVRNAMKNRLGKYDNLNLAISEVNKKLKAKINLFELRTINSLINQKSIYDFFKEGHHHHHH”, the “soluble on expression in E. coli” value was “not soluble”.
For “MGSDKIHHHHHHVTIPTQAKFTLRGRNPDVLSCIANLSNDEVFTPPEFAARMLDTLAQAWAEDHGGANLWADPTVRFLDPCTKSGVFLREITRRLVEGLAEQMPDLQKRVDHILTRQVFGIGITRLTALLARRSVYCSKYANGPHSIAKSFTTEAGNIWFERVEHTWKNGRCVYCGASQGTLDRGEELESHAYAFIHTDDIKTRITEIFGDDMQFDVIIGNPPYQLASDGGTRDIPIYQHFVEQAKKLDPKYLVMVIPSRWMASGLGLSEFRQTMLADRRIRELVDFPVATEVFPGVEVKGGVCYFLWNAAREGDCNVTTVRGEELRSCTLQF”, the “soluble on expression in E. coli” value was “not soluble”.
With “MSATETKYVPRLYKKYKEEVVPILQKKFNYKSPMQIPRLQKIVVNMGVGEAVQDIRQLERAVEDLRAITGQQPVITRARKSEAGFKLRKGMPIGCKVTLRKERMWDFLDKLISVALPRVKDFKGLSPRSFDGRGNYAFGIAEQIVFPEIDYDKVDRIRGMDIIINTTAETDEEAFWLLSLLGLPIRSM” the “soluble on expression in E. coli” value was “soluble”.
With “MGSDKIHHHHHHMSEIQLPSQFESFAEARKQGFIAVKNLKEQGKKVAGVFCTYAPVELVLAAGAVPVGLCAFSDETIPEAEKVLPRNLCPLVKSSYGFAITDKCPYMFFSDLMIGETTCDGKKKMYELLGEFKNLHVMQLPQTAAAEASQELWYQEVLRLKDRIEQDFGVTITEEGIKNAIKVKNEERKLLKEFYELSKSCPPPITGAEQLKVLYGSQFKFDPEAKNREIRETIDKVKADQAKGVENVSPAAKRILITGCPLAGVTEKVVRAIEESGGVVVAYENCIGVKPVERLVDETIDPYKALADRYLQIGCSVMTPNPNRLDLLSRLVREFKVDGVVEMTLQACHTYNLETTQIRKHMQKEDMPFISVETDYSTSDAAQLKTRLAAFIEMLS” the “soluble on expression in E. coli” value was “not soluble”.
With “MGHHHHHHSHMVNVKGSTKKSNLDRFLHCITPLVPPQSLPKTEIRTLNRLWHPWERQKVEFFRLSDLWDCYDEWSAYGASVPIHVTNGESLVQYYVPYLSAIQIFTSHSSLIRLREESEDGECEGRDPFSDSGSDESVSEEGLENNTLLHPSDRLGYLYLQYFERSAPYTRVPLMDKINELAQRYPGLMSLRSVDLSPASWMSVAWYPIYHIPMGRTIKDLSTCFLTYHTLSSSFQDMEPEENGGDKERVRREGEDITLLPFGMATYKMQGDVWLSQDHDDQERLASLYSVADSWLKQLRVQHHDFNYFCNMSMTHRG” the “soluble on expression in E. coli” value was “soluble”.
With “MEIANKRAWREYISYEIIRLQMHQILTLFLLALAASPSQAVTDRSCGSDLSRLWLDIVFVVDNSKNMNLYNVYNTISNLFNPFVQIGTGYDDPRSTRVGFITYNWNATDVADFYKLQSYSDLSSQIQALSVTPLSRADETYIDTGLQAAINMINATGGLRDNYKKVVVLFTSKYNYYHTYPEDLTDYLKSTGVTIITVNTGGDSYTTQSLRDKIASKGMAFAMSDGNTTAELQKAVLAINCFCRPGWMQYHYPLKSDNIYSNYGVCLYRPDSAMTKFAAQSYCHSLTTNGYLVSELDQQKRAFNWDYLNSKGITINAFYNGLTNYNGTWWWDQPSGQPLWPLNPNSGAPPQRSGCVVDMKYSDGSISWTPISCTSFFRFLCESVACDTDNYCEF” the “soluble on expression in E. coli” value was “not soluble”.
For “MGYVGIKIRLTDVAPQAQELFKKESLDVKENKVYLVAATLRPETMYGQTCCFVSPKIDYGVFDAGNGDYFITTERAFKNMSFQNLTPKRGYYKPLFTINGKTLIGSRIDAPYAVNKNLRVLPMETVLATKGTGVVTCVPSDSPDDFVTTRDLANKPEYYGIEKDWVQTDIVPIVHTEKYGDKCAEFLVNDLKIQSPKDSVQLANAKELAYKEGFYNGTMLIGKYKGDKVEDAKPKVKQDLIDEGLAFVYNEPELEHHHHHH”, the “soluble on expression in E. coli” value was “soluble”.
With “MGHHHHHHSHGSYANEISSSIIINRPAERLFDLWRKPETLPILMGHFASIEILNHTDSNWRINTPIGSLIEWQARIIDEKPGEYIHWRSLEGARVPNEGRLSFQPAASEAGTAVTLTIRYNPPGGLIGKKIGQMFDMFSRDMLTKTLYRFKKLAEDER” the “soluble on expression in E. coli” value was “soluble”.
For “MGSDKIHHHHHHMKLAVYVHVPFCKSKCVYCDFYSVVSEKFDEYFSHLLREIDLYEEVLSESEIKTVYFGGGTPSVVPPSFLKMVLEKLERVSRGFTPDEITIEVNPESVETEKLKIYKQIGINRISLGVQACDDTVLKNAGRLYKEETLKKKAKIVLEQFENVNFDFILGLPGETDITLKKDFRFLEEFPPQHVSLYLLEVDERTRLFDLIQKGLVELPEEDDVERRHDLFVEFLKERGFLRYEISNFAKPGKKSLHNLFYWRNENYLGLGVSAGGHIGRFRYVNASDLKEYEEKITKGELPYEYVHENTEEEEALETVFMGLRIKEGVELNRVKILLPLLEKLQKKYPCYLKVKNGKIFLSEDGMNFSKKILSDLIEWYREGGR”, the “soluble on expression in E. coli” value was “not soluble”.
For “MGHHHHHHSHMAFMVKSMVGGQLKNLTGSLGGGEDKGDGDKSAAEAQGMSREEYEEYQKQLVEEKMERDAQFTQRKAERATLRSHFRDKYRLPKNETDESQIQLAGGDVELPRELAKMIEEDTEEEEDKASVLGQLASLPGLDLSSLKDKAQTTLGDLKQSAEKCHIM”, the “soluble on expression in E. coli” value was “not soluble”.
